# T1: RjoADP-GlcPPase (Rhodococcus jostii, UniProt Q0S3Y4)
# T1 sequence (Q0S3Y4 1-404): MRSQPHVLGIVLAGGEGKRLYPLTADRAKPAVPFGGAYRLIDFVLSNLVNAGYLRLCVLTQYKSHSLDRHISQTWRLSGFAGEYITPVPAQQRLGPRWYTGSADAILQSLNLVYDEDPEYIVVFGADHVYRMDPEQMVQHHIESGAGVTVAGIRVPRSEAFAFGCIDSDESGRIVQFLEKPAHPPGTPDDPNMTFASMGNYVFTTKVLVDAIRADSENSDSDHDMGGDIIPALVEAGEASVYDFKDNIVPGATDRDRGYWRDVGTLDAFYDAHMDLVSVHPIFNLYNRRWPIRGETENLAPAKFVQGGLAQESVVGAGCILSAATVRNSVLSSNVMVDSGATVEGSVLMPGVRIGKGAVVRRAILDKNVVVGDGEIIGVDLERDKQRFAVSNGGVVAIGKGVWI
# Assays:
# RjoADP-GlcPPase = target: T1, RjoADP-GlcPPase; test: Pi release; format: biochemical; settings: read-out: S0.5; no effector; ATP, 10 mM MgCl2, pH 8.0, 37°C
# purified protein [1] = substrate: O=P(O)(O)O[C@H]1O[C@H](CO)[C@@H](O)[C@H](O)[C@H]1O; test: purified protein; settings: no effector, ATP, 10 mM MgCl2, pH 8.0, 37°C
# purified protein [2] = substrate: Nc1ncnc2c1ncn2[C@@H]1O[C@H](COP(=O)(O)OP(=O)(O)OP(=O)(O)O)[C@@H](O)[C@H]1O; test: purified protein; settings: no effector, Glc-1P, 10 mM MgCl2, pH 8.0, 37°C
Molecule,Km (RjoADP-GlcPPase),K0.5 (purified protein [1]),kcat (purified protein [1]),K0.5 (purified protein [2])
O=P(O)(O)O[C@H]1O[C@H](CO)[C@@H](O)[C@H](O)[C@H]1O [Glc-1P],1800 µM,–,–,–
RfaADP-GlcPPase (Rhodococcoides fascians) (protein) MRTQPHVLGIVLAGGEGKRLYPMTADRAKPAVPFGGAYRLIDFVLSNLVNAGYLRLCVLTQYKSHSLDRHISQTWRLSGFAGEYITPVPAQQRLGPRWYTGSADAIFQSLNLVYDEDPEYIVVFGADHVYRMDPEQMVQQHIDSGAGVTVAGIRVPRSEAFAFGCIDSDENGKITQFLEKPAQPPGTPDDPDVTYASMGNYVFTTKVLVDAIKADSENSDSDHDMGGDIIPALVEAGVASVYDFNDNVVPGATERDRGYWRDVGTIDAFYDAHMDLVSVHPIFNLYNRRWPIRGSAENLPPAKFVQGGLAQESVVGAGCILSAATVRNSVLSSNVMIDSGATVEGSVLMPGVRIGKGAVVRHAILDKNVVVGDGEIVGVDLERDRERFNVSAGGVVSVGKGVWI,–,1.17 ± 0.08 mM,8.8 s⁻¹,0.58 mM

# Reference: publication doi:10.1101/2020.04.11.018549v1 (biorxiv, 2020)
